Test results as given in US20220298237A1 (KEIO UNIVERSITY, published 2022).

T1: oligopeptide ATYPSGHLDM (SEQ ID NO: 1) (human and mouse)
T1 construct: Synthetic peptide; positions 148 to 157 of the human AQP3 polypeptide, identical in mouse; also called peptide used for immunization; oligopeptide 5
T1 peptide: ATYPSGHLDM


Molecular target: T1, oligopeptide ATYPSGHLDM (SEQ ID NO: 1)
Experiment: ELISA on peptide, Fab

Row | Binder | binding result
1 | BC-A8 (Fab) (Fab, V domains shown) VH: QTVKESGGRLVTPGAPLTLTCTVSRFSLSSYAMTWVRQAPGKGLEWIGIINNDGSSSTWYASWVKGRFTISKTSTTMDLKMTSLTTEDTATYFCARGGTSGYDIWGPGTLVTVSL VL: AQGLTQTPSPVSAAVGGTVTINCQSSPSVYKNYLSWYQQKPGQPPKLLIYGASTLASGVPSRFKGSGSGTQFTLTISDVQCDDAATYYCAGGYRGSSDIFAFGGGTEVVVK | binds
2 | SC-D1 (Fab) (Fab, V domains shown) VH: QSLEESRGRLVTPGGSLTLTCTVSGFSLSSYAMTWVRQAPGKGLEWIGIINNDGVSSTWYASWVKGRFTISKTSTTMDLKMTSLTTEDTATYFCARGGTSGYDIWGPGTLVTVSL VL: DPMMTQTPSPVSAAVGGTVTINCQSSPSVYKNYLSWYQQKPGQPPKLLIYGASTLASGVPSRFKGSGSGTQFTLTISGVQCDDAATYYCAGGYRGSSDIFAFGGGTEVVVK | binds
3 | BC-E2 (Fab) (Fab, V domains shown) VH: QEQLKESGGRLVTPGAPLTLTCTVSRFSLSSYAMTWVRQAPGKGLEWIGIINNDGISSTWYASWVKGRFTISKTSTTMDLKMTSLTTEDTATYFCARGGTSGYDIWGPGTLVTVSL VL: AVVLTQTPSPVSAAVGGTVTINCQSSPSVYKNYLSWYQQKPGQPPKLLIYKASTLASGVPSRFKGSGSGTQFTLTISDVQCDDAATYYCAGGYRGSSDIFAFGGGTEVVVK | binds
4 | BC-E1 (Fab) (Fab, V domains shown) VH: QSVKESGGRLVAPGTPLTLTCAVSGFSLSSYAMTWVRQAPGKGLEWIGIINNDGRSSTWYASWVKGRFTISKTSTTMDLKMTSPTTEDTATYFCARGGTSGYDIWGPGTLVTVSL VL: AQGMTQTPSPVSAAVGGTVTINCQSSPSVYKNYLSWYQQKPGQPPKLLIYGASTLASGVPSRFKGSGSGTRFTLTISDVQCDDAATYYCAGGYRGSSDIFAFGGGTEVVVK | binds
5 | SC-F6 (Fab) (Fab, V domains shown) VH: QSVKESGGRLVTPGAPLTLTCTVSRFSLSSYAMTWVRQAPGKGLEWIGIINNDGISSTWYASWVKGRFTISKTSTTMDLKMTSLTTEDTATYFCARGGTSGYDIWGPGTLVTVSL VL: AQGMTQTPASVSAAVGGTVTINCQSSPSVYKNYLSWYQQKSGQPPKLLIYGASTLASGVPSRFKGSGSGTQFTLTISDVQCDDAATYYCAGGYRGSSDIFAFGGGTEVVVK | binds
6 | BC-E3 (Fab) (Fab, V domains shown) VH: QSVKESGGRLVAPGTPLTLTCAVSGFSLSSYAMTWVRQAPGKGLEWIGIINNDGRSSTWYASWVKGRFTISKTSTTMDLKMTSPTTEDTATYFCARGGTSGYDIWGPGTLVTVSL VL: AQGMTQTPSPVSAAVGGTVTINCQSSPSVYKNYLSWYQQKPGQPPKLLIYGASTLASGVPSRFKGSGSGTRFTLTISDVQCDDAATYYCAGGYRGSSDIFAFGGGTEVVVK | binds
7 | SC-D10 (Fab) (Fab, V domains shown) VH: QSVKESGGRLVTPGGSLTLTCTVSRFSLSSYAMTWVRQAPGKGLEWIGIINNDGVSSTWYASWVKGRFTISKTSTTMDLKMTSLTTEDTATYFCARGGTSGYDIWGPGTLVTVSL VL: ALVMTQTPSPVSAAVGGTVTTNCQSSPSVYKNYLSWYQQKPGQPPKLLIYKASTLASGVPSRFSGSGSGTQFTLTISDVQCDDAATYYCAGGYRGSSDIFAFGGGTEVVVK | binds
8 | BC-E11 (Fab) (Fab, V domains shown) VH: QSVKESGGRLVAPGTPLTLTCAVSGFSLSSYAMTWVRQAPGKGLEWIGIINNDGRSSTWYASWVKGRFTISKTSTTMDLKMTSPTTEDTATYFCARGGTSGYDIWGPGTLVTVSL VL: AQGMTQTPSPVSAAVGGTVTINCQSSPSVYKNYLSWYQQKPGQPPKLLIYGASTLASGVPSRFKGSGSGTRFTLTISDVQCDDAATYYCAGGYRGSSDIFAFGGGTEVVVK | binds
9 | BC-G6 (Fab) (Fab, V domains shown) VH: QSVEESGGRLVTPGGSLTLTCTASGFSLSGYAMTWVRQAPGKGLEWIGIINNDGISSTWYASWVKGRFTISKTSTTMDLKMTSLTTEDTATYFCARGGTSGYDIWGPGTLVTVSL VL: ALVMTQTPSPVSAAVGGTVTINCQSSPSVYKNYLSWYQQKPGQPPKLLIYGASTLASGVPSRFKGSGSGTQFTLTISDVQCDDAATYYCAGGYRGSSDIFAFGGGTEVVVK | binds
10 | BC-B4 (Fab) (Fab, V domains shown) VH: QSVEESGGRLVTPGGSLTLTCTVSRFSLSSYAMTWVRQAPGKGLEWIGIINNDGISSTWYASWVKGRFTISKTSTTMDLKMTSLTTEDTATYFCARGGTSGYDIWGPGTVVTVSL VL: ALVLTQTPSPVSAAVGGTVTINCQSSQSVYKNYLSWYQQKPGQPPKLLIYGASTLASGVPSRFKGSGSGTQFTLTISDVQCDDAATYYCAGGYRGSGDIFAFGGGTEVVVK | binds
11 | SC-C7 (Fab) (Fab, V domains shown) VH: QTVKESGGRLVTPGAPLTLTCTVSRFSLSGYAMTWVRQAPGKGLEWIGIINNDISGSTWYASWVKGRFTISKTSTTMDLKMTSLTTEDTATYFCARGGTSGYDIWGPGTLVTVSS VL: DVVMTQTPSPVSAAVGGTVTINCQSSPSVYKNYLSWYQQKPGQPPKLLIYGASTLASGVPSRFKGSGSGTQFTLTISDVQCDDAATYYCAGGYRGSSDIFAFGGGTEVVVK | binds
12 | BC-A3 (Fab) (Fab, V domains shown) VH: QTVKESGGRLVTPGAPLTLTCTVSRFSLSSYAMTWVRQAPGKGLEWIGIINNDGVSSTWYASWVKGRFTISKTSTTMDLKMTSLTTEDTATYFCARGGTSGYDIWGPGTLVTVSL VL: AQVLTQTPASVSAAVRGTVTINCQSSPSVYKNYLSWYQQKSGQPPKLLIYGASTLASGVPSRFKGSGSGTQFTLTISDVQCDDAATYYCAGGYRGSSDIFAFGGGTEVVVK | binds
13 | BC-A9 (Fab) (Fab, V domains shown) VH: QSVEESGGRLVTPGGSLTLTCTVSRFSLSSYAMTWVRQAPGKGLEWIGIINNDGISSTWYASWVKGRFTISKTSTTMDLKMTSLTTEDTATYFCARGGTSGYDIWGPGTVVTVSL VL: AQGLTQTPASVSAAVGGTVTINCQSSPSVYKNYLSWYQQKSGQPPKLLIYGASTLASGAPSRFKGSGSGTQFTLTISDVQCDDAATYYCAGGYRGSSDIFAFGGGTEVVVK | binds
14 | BC-E4 (Fab) (Fab, V domains shown) VH: QSVKESGGRLVAPGTPLTLTCAVSGFSLSSYAMTWVRQAPGKGLEWIGIINNDGRSSTWYASWVKGRFTISKTSTTMDLKMTSPTTEDTATYFCARGGTSGYDIWGPGTLVTVSL VL: AQGMTQTPSPVSAAVGGTVTINCQSSPSVYKNYLSWYQQKPGQPPKLLIYGASTLASGVPSRFKGSGSGTRFTLTISDVQCDDAATYYCAGGYRGSSDIFAFGGGTEVVVK | binds
15 | BC-F7 (Fab) (Fab, V domains shown) VH: QSVEESGGRLVTPGGSLTLTCTVSRFSLSSYAMTWVRQAPGKGLEWIGIINNDGISSTWYASWVKGRFTISKTSTTMDLKMTSLTTEDTATYFCARGGTSGYDIWGPGTVVTVSL VL: ALVLTQTPSPVSAAVGGTVTINCQSSQSVYKNYLSWYQQKPGQPPKLLIYGASTLASGVPSRFKGSGSGTQFTLTISDVQCDDAATYYCAGGYRGSGDIFAFGGGTEVVVK | binds
16 | SC-H10 (Fab) (Fab, V domains shown) VH: QSLEESGGRLVTPGAPLTLTCTVSRFSLSSYAMTWVRQAPGKGLEWIGIINNDGISSTWYASWVKGRFTISKTSTTMDLKMTSLTTEDTATYFCARGGTSGYDIWGPGTLVTVSL VL: AQGLTQTPSPVSAAVGGTVTINCQSSPSVYKNYLSWYQQKPGQPPKLLIYGASTLASGVPSRFSGSGSGTQFTLTISDVQCDDAATYYCAGGYRGSSDIFAFGGGTEVVVK | binds
17 | SC-G8 (Fab) (Fab, V domains shown) VH: QSVEESGGRLVMPGGSLTLTCTASGFSLSSYAMTWVRQAPGKGLEWIGIINNDGSGSTWYASWVKGRFTISKTSTTMDLKMTSLTTEDTATYFCARGGTSGYDIWGPGTLVTVSL VL: AAVLTQTPSPVSAAVGGTVTINCQSSPSVYKNYLSWYQQKPGQPPKLLIYKASTLASGVPSRFKGSGSGTQFTLTISDVQCDDAATYYCAGGYRGYSDIFAFGGGTEVVVK | binds
18 | BC-H4 (Fab) (Fab, V domains shown) VH: QQLKESGGRLVTPGAPLTLTCTVSRFSLSSYAMTWVRQAPGKGLEWIGIINNDGVSSTWYASWVKGRFTISKTSTTMDLKMTSLTTEDTATYFCARGGTSGYDIWGPGTLVTVSS VL: ALVLTQTPSPVSAAVGGTVTINCQSSPSVYKNYLSWYQQKPGQPPKLLIYGASTLASGVPSRFKGSGSGTQFTLTISDVQCDDAATYYCAGGYRGSGDIFAFGGGTEVVVK | binds
19 | SC-B2 (Fab) (Fab, V domains shown) VH: QEQLMESRGRLVTPGGSLTLTCTVSRFSLSNYAMTWVRQAPGKGLEWIGIINNDGISSTWYASWVKGRFTISKTSTTMDLKMTSLTTEDTATYFCARGGTSGYDIWGPGTLVTVSL VL: AQGPTQTPSPVSAAVGGTVTINCQSSPSVYKNYLSWYQQKPGQPPKLLIYGASTLASGVPSRFKGSGSGTQFTLTISDVQCDDAATYYCAGGYRGSGDIFAFGGGTEVVVK | binds
20 | BC-C8 (Fab) (Fab, V domains shown) VH: QSLEESGGRLVTPGGSLTLTCTVSRFSLSSYAMTWVRQAPGKGLEWIGIINNDGISSTWYASWVKGRFTISKTSTTMDLKMTSLTTEDTATYFCARGGTSGYDIWGPGTVVTVSL VL: ALVLTQTPSPVSAAVGGTVTINCQSSPSVYKNYLSWYQQKPGQPPKLLIYGASTLASGVPSRFKGSGSGTQFTLTISDVQCDDAATYYCAGGYRGSSDIFAFGGGTEVVVK | binds
21 | BC-F2 (Fab) (Fab, V domains shown) VH: QSVKESGGRLVAPGTPLTLTCAVSGFSLSSYAMTWVRQAPGKGLEWIGIINNDGRSSTWYASWVKGRFTISKTSTTMDLKMTSPTTEDTATYFCARGGTSGYDIWGPGTLVTVSL VL: AQGMTQTPSPVSAAVGGTVTINCQSSPSVYKNYLSWYQQKPGQPPKLLIYGASTLASGVPSRFKGSGSGTRFTLTISDVQCDDAATYYCAGGYRGSSDIFAFGGGTEVVVK | binds
